{"source": "paper PMC8491902", "about": "“Experimental and computational investigation of enzyme functional annotations uncovers misannotation in the EC 1.1.3.15 enzyme class” (PLoS Computational Biology, 2021)", "molecules": {"B1": {"name": "A0A0R3K2G2 (Caloramator mitchellensis) (protein)", "chain": "MFDVAIIGAGVIGCSIARELSKYNLNVALIEKENDVGNVTTKANSAIIHAGYDAKPGTLKGKLNAKGNLMFDELCRELEVPFKRVGSLVLAFDDDEMKTLGKLYEQGIQNGVPELYILSKEKVLEMDPNISDNIKGALYAKTGGIIGPWEFTIALAENAVENGVNIFLSNEVVDIEKKDFGYRIITNKDTYDTKYVVNCAGLYADKINNMVSNNKMEIIPRRGQYYLLDKTVGNLVKYVIFQCPSKLGKGVLVTPTVHGNLLIGPDAEDLIDKTALNTTSEGLNFIVEVARRSVKTLPLNMAITNFAGLRARTERDDFIIEEAVDAKGFINVAGIESPGLSSAPAISLYVIDILKNIAKKIEKKENFNPYRRAIPKFIELSEDEKNELVKKDKRFGKIICRCESITEGEIVSAIHRNVGARTVDAVKRRVRAGMGRCQGGFCSPRVIEILARELGVEMTEIEKDHEGSYILTGPTKSEVQ"}, "B2": {"name": "D4MUV9 (Anaerostipes hadrus) (protein)", "chain": "MSEYQYNKVTPEMIEKFKEIAPKRVLVGDEINEDFTHDEMAIYGKARPEVLVEATSTEEVAAVVKLCNENKIPVTPSGARTGLVGGAVSIGGGVMISLTKMNKILGYDKENFVVKIQSGVLLNDLAQDAEKQGLLYPPDPGEKFATVGGNVATNAGGMRAVKYGCTRDYVRAMTVVLPTGEIVKLGATVSKTSSGYSLLNLMIGSEGTLGIITELTLKVIPAPKSVISLIIPYENLEDCIATVPQFFMHHLAPQALEFMEKEVVMDTEKFLGKQVYPKELEGTEIGAYLLATFDGNSEEQLEDIIEQASEVVLEAGAIDVLVADTPALKKDAWAVRGALLEAIEADTVLLDECDVVVPTNKIAEFLTYTKSLEAEADFRVKSFGHAGDGNLHIYTCSNDMEEGEFKKQVAVFMDKVYAKATEFGGMISGEHGIGHGKMDYLAESLGPVQMRIMEGVKEVFDPNMILNPGKICYKL"}}, "key": {"B8MKR3": {"biological_target": "T1, B8MKR3 (Talaromyces stipitatus, UniProt B8MKR3)", "T1 construct": "gene TSTA_043820", "T1 sequence (B8MKR3 1-496)": "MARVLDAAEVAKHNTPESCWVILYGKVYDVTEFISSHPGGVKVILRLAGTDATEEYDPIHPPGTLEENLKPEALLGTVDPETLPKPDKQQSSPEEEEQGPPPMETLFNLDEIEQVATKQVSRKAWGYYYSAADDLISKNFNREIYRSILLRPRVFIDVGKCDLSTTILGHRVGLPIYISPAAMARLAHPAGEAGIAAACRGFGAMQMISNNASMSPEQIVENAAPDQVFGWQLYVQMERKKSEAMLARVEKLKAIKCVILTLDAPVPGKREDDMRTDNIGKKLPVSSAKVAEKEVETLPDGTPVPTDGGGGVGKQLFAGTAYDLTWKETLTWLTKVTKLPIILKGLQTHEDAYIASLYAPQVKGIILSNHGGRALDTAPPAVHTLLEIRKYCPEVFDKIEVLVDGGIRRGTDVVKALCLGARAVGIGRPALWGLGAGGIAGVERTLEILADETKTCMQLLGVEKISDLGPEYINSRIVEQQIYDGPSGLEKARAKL", "assay": "cytochrome c reduction at […] nm", "type": "biochemical", "settings": "2 mM substrate; 0.1 mM cytochrome c; 20 mM HEPES pH 7.4"}, "C9Y9E7": {"biological_target": "T2, C9Y9E7 (Curvibacter putative symbiont of Hydra magnipapillata, UniProt C9Y9E7)", "T2 construct": "gene lldD; full-length synthetic gene in pET21a, C-terminal linker and deca-His tag, soluble E. coli BL21(DE3) lysate", "T2 sequence (C9Y9E7 1-381)": "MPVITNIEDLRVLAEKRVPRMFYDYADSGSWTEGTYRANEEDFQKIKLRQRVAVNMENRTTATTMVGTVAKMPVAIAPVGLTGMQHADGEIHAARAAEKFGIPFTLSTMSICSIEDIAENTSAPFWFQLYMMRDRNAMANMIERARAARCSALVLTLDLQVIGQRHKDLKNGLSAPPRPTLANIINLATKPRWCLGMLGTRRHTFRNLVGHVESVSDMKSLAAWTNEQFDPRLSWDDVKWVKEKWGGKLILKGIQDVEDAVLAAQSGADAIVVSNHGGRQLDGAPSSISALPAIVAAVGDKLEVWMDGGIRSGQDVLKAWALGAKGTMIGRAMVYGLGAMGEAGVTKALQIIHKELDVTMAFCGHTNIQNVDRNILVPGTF", "assay": "Amplex Red peroxide assay", "type": "biochemical", "settings": "[…] DL-mandelate; […] HEPES pH […]; HRP; lysate"}, "W6W585": {"biological_target": "T3, W6W585 (Rhizobium sp. CF080, UniProt W6W585)", "T3 construct": "gene PMI07_004712; full-length synthetic gene in pET21a, C-terminal linker and deca-His tag, soluble E. coli BL21(DE3) lysate", "T3 sequence (W6W585 1-409)": "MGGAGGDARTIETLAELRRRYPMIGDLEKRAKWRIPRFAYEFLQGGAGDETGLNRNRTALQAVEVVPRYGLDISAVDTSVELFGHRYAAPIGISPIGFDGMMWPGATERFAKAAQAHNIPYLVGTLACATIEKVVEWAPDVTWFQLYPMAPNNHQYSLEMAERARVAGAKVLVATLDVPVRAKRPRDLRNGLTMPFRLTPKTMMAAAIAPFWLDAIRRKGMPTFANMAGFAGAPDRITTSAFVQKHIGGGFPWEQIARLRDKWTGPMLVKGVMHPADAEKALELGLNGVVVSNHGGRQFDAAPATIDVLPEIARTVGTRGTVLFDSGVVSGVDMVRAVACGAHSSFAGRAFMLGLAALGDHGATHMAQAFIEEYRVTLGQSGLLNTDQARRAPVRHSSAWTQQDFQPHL", "assay": "Amplex Red peroxide assay", "type": "biochemical", "settings": "[…] DL-mandelate; […] HEPES pH […]; HRP; lysate"}, "E6SCX5": {"biological_target": "T4, E6SCX5 (Intrasporangium calvum, UniProt E6SCX5)", "T4 construct": "gene Intca_2052; full-length synthetic gene in pET21a, C-terminal linker and deca-His tag, soluble E. coli BL21(DE3) lysate", "T4 sequence (E6SCX5 1-415)": "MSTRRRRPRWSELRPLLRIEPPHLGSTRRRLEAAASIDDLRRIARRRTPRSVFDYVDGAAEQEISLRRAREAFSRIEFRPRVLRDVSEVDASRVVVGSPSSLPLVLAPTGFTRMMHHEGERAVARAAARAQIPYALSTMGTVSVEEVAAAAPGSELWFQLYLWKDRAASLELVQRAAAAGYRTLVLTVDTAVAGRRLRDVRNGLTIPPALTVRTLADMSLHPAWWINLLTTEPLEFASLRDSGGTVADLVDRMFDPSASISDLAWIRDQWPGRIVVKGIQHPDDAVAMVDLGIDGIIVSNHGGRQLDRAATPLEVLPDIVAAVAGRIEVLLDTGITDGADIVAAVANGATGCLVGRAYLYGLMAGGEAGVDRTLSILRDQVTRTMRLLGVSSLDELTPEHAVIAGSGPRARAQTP", "assay": "Amplex Red peroxide assay", "type": "biochemical", "settings": "1 mM DL-mandelate; 20 mM HEPES pH 7.4; HRP; lysate"}, "purified protein [1]": {"substrate": "O=P(O)(O)OC[C@H](O)CO", "assay": "purified protein", "type": "biochemical, Caloramator mitchellensis", "settings": "DCPIP + PMS as electron acceptor, 20 mM HEPES pH 7.4, 25 °C"}, "purified protein [2]": {"substrate": "C[C@@H](O)C(=O)O", "assay": "purified protein", "settings": "DCPIP + PMS as electron acceptor, 20 mM HEPES pH 7.4, 25 °C"}}}
{"molecule": "C[C@H](O)C(=O)O", "note": "[L-lactate]", "values": [{"measurement": "cytochrome c reduction at 550 nm", "setting": "B8MKR3", "value": "the B8MKR3 protein displayed cytochrome b2 L-lactate dehydrogenase activity"}]}
{"molecule": "O=C(O)C(O)c1ccccc1", "note": "(racemic) [DL-mandelate]", "values": [{"measurement": "Amplex Red peroxide assay", "setting": "C9Y9E7", "value": "the four proteins display a high activity with mandelate"}, {"measurement": "Amplex Red peroxide assay", "setting": "W6W585", "value": "the four proteins display a high activity with mandelate"}, {"measurement": "Amplex Red peroxide assay", "setting": "E6SCX5", "value": "the four proteins display a high activity with mandelate"}]}
{"molecule": "B1", "values": [{"measurement": "Km", "setting": "purified protein [1]", "value": "1.97 +/- 0.23 x 10^-3 M"}, {"measurement": "kcat", "setting": "purified protein [1]", "value": 0.242, "unit": "s⁻¹"}, {"measurement": "kcat/Km", "setting": "purified protein [1]", "value": 123, "unit": "M⁻¹ s⁻¹"}]}
{"molecule": "B2", "values": [{"measurement": "Km", "setting": "purified protein [2]", "value": "0.40 +/- 0.04 x 10^-3 M"}, {"measurement": "kcat", "setting": "purified protein [2]", "value": 5.18, "unit": "s⁻¹"}, {"measurement": "kcat/Km", "setting": "purified protein [2]", "value": 13100, "unit": "M⁻¹ s⁻¹"}]}
